Results on one substance are retold here after PMC11785930.

The target of this test is STAT3 (protein used in the ELISA) (UniProt P42227). As to the kind of experiment: ELISA; documented protocol (ref. 44); which protein was coated and the conditions are not told.

“Becn1 (protein used in the ELISA) (from UniProt O88597 1-448) (natural protein)” showed a Kd of 120 nM.
